Measured values as given in PMC9506415.

Target: human fibronectin (human) (UniProt P02751)
Experiment: dual-polarization interferometry (DPI); 100 μg/mL FN immobilised on an amine-functionalised AnaChip, sealing agent, then samples injected; Tris-HCl pH 7.4 with 0.1 M NaCl; layer thickness and mass resolved

bovine gelatin (G9382, type B) showed a resolved layer mass after adsorption of gelatin (3.68 ng/mm^2 before) of 3.86 ng/mm^2 and a resolved layer thickness after adsorption of gelatin (11.60 nm before) of 12.6 nm.
